The Immune Epitope Database (IEDB)

Legend:
Experiment in all cases: IEDB peptide-MHC binding, purified MHC/competitive/radioactivity; filed as Kd, often an IC50 or EC50 that approximates it; ≥ and ≤ were set here for values at or beyond the usual limits of such assays
HLA-A*68:01 = molecular target: HLA-A*68:01
HLA-A*03:01 = molecular target: HLA-A*03:01
HLA-A*11:01 = molecular target: HLA-A*11:01
HLA-A*33:01 = molecular target: HLA-A*33:01
HLA-A*31:01 = molecular target: HLA-A*31:01
[1] = source organism: Vaccinia virus WR
[2] = source organism: Dengue virus 3 Martinique/1243/1999
[3] = source organism: SARS coronavirus Tor2
[4] = source organism: Dengue virus 1 Brazil/97-11/1997
[5] = source organism: Lassa virus Josiah
[6] = source organism: Dengue virus 2 Jamaica/1409/1983
[7] = source organism: Mammarenavirus lassaense

| Sequence | Kd (HLA-A*68:01; [1]) [nM] | Kd (HLA-A*03:01; [1]) [nM] | Kd (HLA-A*11:01; [1]) [nM] | Kd (HLA-A*33:01; [1]) [nM] | Kd (HLA-A*31:01; [1]) [nM] | further results |
| --- | --- | --- | --- | --- | --- | --- |
| AAGIIILMEY | 1200 | 6280 | 1340 | 7170 | 1030 |  |
| AARILSEKR | 852 | ≥ 78000 | 6080 | 1070 | 36.3 |  |
| AGLAFSIMK |  |  |  |  |  | Kd (HLA-A*11:01; [2]): 13.8 nM |
| AIEPSGNNY | ≥ 77700 | ≥ 59600 | 5790 | ≥ 77700 | ≥ 77900 |  |
| AIVCRFDTR |  |  |  |  |  | Kd (HLA-A*68:01; [3]): 563 nM; Kd (HLA-A*03:01; [3]): 4170 nM; Kd (HLA-A*11:01; [3]): 1210 nM; Kd (HLA-A*33:01; [3]): 329 nM; Kd (HLA-A*31:01; [3]): 133 nM |
| ALAYYNNSK |  |  |  |  |  | Kd (HLA-A*68:01; [3]): 832 nM; Kd (HLA-A*03:01; [3]): 44.5 nM; Kd (HLA-A*11:01; [3]): 29 nM; Kd (HLA-A*33:01; [3]): ≥ 45900 nM; Kd (HLA-A*31:01; [3]): 7570 nM |
| ALSTNHGHK |  |  |  |  |  | Kd (HLA-A*68:01; [3]): 3050 nM; Kd (HLA-A*03:01; [3]): 30 nM; Kd (HLA-A*11:01; [3]): 619 nM; Kd (HLA-A*33:01; [3]): ≥ 46500 nM; Kd (HLA-A*31:01; [3]): 8930 nM |
| AMRCVGIGNR |  |  |  |  |  | Kd (HLA-A*31:01; [4]): 872 nM |
| AMSCDFNGGK |  |  |  |  |  | Kd (HLA-A*68:01; [5]): ≥ 26700 nM; Kd (HLA-A*03:01; [5]): 2000 nM; Kd (HLA-A*11:01; [5]): 273 nM; Kd (HLA-A*33:01; [5]): ≥ 24200 nM; Kd (HLA-A*31:01; [5]): ≥ 30000 nM |
| ASLPTTIAK |  |  |  |  |  | Kd (HLA-A*68:01; [3]): 2030 nM; Kd (HLA-A*33:01; [3]): ≥ 40300 nM; Kd (HLA-A*31:01; [3]): 118 nM |
| ASLPYGANK |  |  |  |  |  | Kd (HLA-A*68:01; [3]): 16500 nM; Kd (HLA-A*03:01; [3]): 177 nM; Kd (HLA-A*11:01; [3]): 111 nM; Kd (HLA-A*33:01; [3]): ≥ 52200 nM; Kd (HLA-A*31:01; [3]): 514 nM |
| AVQTKPGLFK |  |  |  |  |  | Kd (HLA-A*03:01; [6]): 16.6 nM; Kd (HLA-A*11:01; [6]): 37.9 nM |
| CFPSTQRDY | ≥ 58400 | 868 | 2510 | ≥ 77700 | 9810 |  |
| DIVNEHDIK | 3670 | ≥ 63200 | ≥ 77900 | ≥ 77700 | ≥ 77900 |  |
| DLDKVYEILK | 1300 | 3350 | 751 | ≥ 24300 | 12000 |  |
| EFCVDHPFIY | ≥ 54700 | ≥ 70100 | 11000 | ≥ 44400 | ≥ 37600 |  |
| EITHHAVSR |  |  |  |  |  | Kd (HLA-A*68:01; [2]): 24.1 nM; Kd (HLA-A*33:01; [2]): 89.8 nM |

| Sequence | Kd (HLA-A*68:01; [1]) [nM] | Kd (HLA-A*03:01; [1]) [nM] | Kd (HLA-A*11:01; [1]) [nM] | Kd (HLA-A*33:01; [1]) [nM] | Kd (HLA-A*31:01; [1]) [nM] | further results |
| --- | --- | --- | --- | --- | --- | --- |
| ETLGEKWKR |  |  |  |  |  | Kd (HLA-A*68:01; [4]): 69.2 nM; Kd (HLA-A*33:01; [4]): 13.4 nM |
| ETLTSVFQK |  |  |  |  |  | Kd (HLA-A*11:01; source organism: Homo sapiens): 11 nM |
| FCNLSDAHK |  |  |  |  |  | Kd (HLA-A*68:01; [5]): 1050 nM; Kd (HLA-A*03:01; [5]): ≥ 36200 nM; Kd (HLA-A*11:01; [5]): ≥ 51000 nM; Kd (HLA-A*33:01; [5]): 4330 nM; Kd (HLA-A*31:01; [5]): ≥ 77900 nM |
| FISDNKKEYK | 11.3 | 1880 | 47.5 | 1050 | 118 |  |
| FLSGKGLGK |  |  |  |  |  | Kd (HLA-A*03:01; [4]): 6.26 nM |
| FMTLVPVLEK | 2 | 82.6 | 3.96 | 20 | 73.3 |  |
| FSPENKAFK | 133 | 6250 | 5020 | 3920 | 6710 |  |
| GLFDFVNFVK | 7.36 | 0.324 | 0.911 | 1200 | 66.1 |  |
| GMMVLKIVR |  |  |  |  |  | Kd (HLA-A*31:01; [6]): 11.3 nM |
| GMSYYCKSHK |  |  |  |  |  | Kd (HLA-A*68:01; [3]): 1370 nM; Kd (HLA-A*03:01; [3]): 20 nM; Kd (HLA-A*11:01; [3]): 91.3 nM; Kd (HLA-A*33:01; [3]): 9960 nM; Kd (HLA-A*31:01; [3]): 111 nM |
| GQRCHFIKK | ≥ 25000 | 21.4 | 13.4 | 13200 | 62 |  |
| GTIAGGVCY | 7900 | 4070 | 69.7 | ≥ 77700 | ≥ 62600 |  |
| GVEDTESIER | 1840 | ≥ 70100 | 948 | 673 | 1930 |  |
| HAIGTSITQK |  |  |  |  |  | Kd (HLA-A*68:01; [4]): 34.5 nM |
| HLKCKVRMEK |  |  |  |  |  | Kd (HLA-A*03:01; source organism: Dengue virus 4 Philippines/H241/1956): 55.4 nM |
| HSYAGDAAEH |  |  |  |  |  | Kd (HLA-A*68:01; [7]): 578 nM; Kd (HLA-A*03:01; [7]): 1480 nM; Kd (HLA-A*11:01; [7]): 17700 nM; Kd (HLA-A*33:01; [7]): ≥ 48000 nM; Kd (HLA-A*31:01; [7]): 2960 nM |
| IFYFISIYSR | 38.9 | 175 | 4180 | 76.2 | 2.39 |  |
